The assay has as its target T1, CMVpp65_(495-503)/HLA-A*02:01 single-chain trimer (SCT) protein (Homo sapiens HLA-A*02:01 (BC019236) and …, UniProt P06725;P61769;Q8WUX3, stabilised).
T1 construct: source: HEK293F, transfected, purified from culture supernatant (Ni-NTA)
As to the kind of experiment: BLI; Abs (mouse IgG2a/κ) immobilised, soluble pMHC SCT as analyte; pH 7.4; Octet QKe; global fit, 1:1 Langmuir model. Particulars: both partners purified.

B1: H9 TCR-like antibody in mouse IgG2a/κ format (antibody, V domains shown)
VH: EVQLVQSGAEVKKPGSSVKVSCKASGGTFSSYAISWVRQAPGQGLEWMGGIIPIFGTANYAQKFQGRVTITADESTSTAYMELSSLRSEDTAVYYCARGDLYYYDSSGYPRYYFDYWGQGTLVTVSS
VL: ETTLTQSPGTLSLSPGERATLSCRASQSVSSSYLAWYQQKPGQAPRLVIYGASSRATGIPDRFSGSGSGTDFTLTISRLEPEDFAVYYCQHYSTSPGFTFGQGTKLEIR
notes: also called parental H9; H9 Ab
For B1, the Kd was found to be 348 ± 33 nM, the koff worked out at 0.0022 s⁻¹ and the kon came out at 6300 M⁻¹ s⁻¹.

In general, Kd refers to the free concentration of one partner at which half of the binding sites on the other are occupied at equilibrium, for simple one-to-one binding. A lower Kd goes with tighter binding. Broadly, the koff is the rate constant with which the complex falls apart. What is called kon is a measure of how fast the partners come together. Lower therefore signals slow association.

The values above are taken from paper PMC7956451 (International Journal of Molecular Sciences, 2021).
